In paper PMC9092470, “Understanding p300-transcription factor interactions using sequence variation and hybridization†” (RSC Chemical Biology, 2022):
No end group written: not given here.

These substances were tested against GST-tagged p300 CH1 domain (residues 330–420) (UniProt Q09472) (assay: fluorescence polarisation; fluorescence anisotropy by the fluorescence of GFP; GFP-HIF-1α 776–826 variants with GST-p300; 25 mM Tris–HCl, 150 mM NaCl, 1 mM DTT, pH 7.4; 1:1 model, each p300 site of the GST dimer taken as independent). Details: not given.

Kd | Substance
114 nM | GFP-HIF-1α 776–826 D799A (from UniProt Q16665 776-826) (domain or fragment)
590 nM | GFP-HIF-1α 776–826 D799A E801A N803A (from UniProt Q16665 776-826) (domain or fragment)
224 nM | GFP-HIF-1α 776–826 E801A L822A (from UniProt Q16665 776-826) (domain or fragment)
128 nM | GFP-HIF-1α 776–826 E817A (from UniProt Q16665 776-826) (domain or fragment)
118 nM | GFP-HIF-1α 776–826 L795A (from UniProt Q16665 776-826) (domain or fragment)
255 nM | GFP-HIF-1α 776–826 L795A D799A (from UniProt Q16665 776-826) (domain or fragment)
153 nM | GFP-HIF-1α 776–826 L795A D799A L818A L822A V825A (from UniProt Q16665 776-826) (domain or fragment)
174 nM | GFP-HIF-1α 776–826 L795A D799A L822A (from UniProt Q16665 776-826) (domain or fragment)
237 nM | GFP-HIF-1α 776–826 L818A (from UniProt Q16665 776-826) (domain or fragment)
126 nM | GFP-HIF-1α 776–826 L818A L822A (from UniProt Q16665 776-826) (domain or fragment)
247 nM | GFP-HIF-1α 776–826 L818A L822A D823A (from UniProt Q16665 776-826) (domain or fragment)
54 nM | GFP-HIF-1α 776–826 L818A L822A V825A (from UniProt Q16665 776-826) (domain or fragment)
109 nM | GFP-HIF-1α 776–826 L822A (from UniProt Q16665 776-826) (domain or fragment)
120 nM | GFP-HIF-1α 776–826 N803A (from UniProt Q16665 776-826) (domain or fragment)
31 nM | GFP-HIF-1α 776–826 Q824A (from UniProt Q16665 776-826) (domain or fragment)
37 nM | GFP-HIF-1α 776–826 S797A (from UniProt Q16665 776-826) (domain or fragment)
198 nM | GFP-HIF-1α 776–826 V825A (from UniProt Q16665 776-826) (domain or fragment)

The substances below were run against GST-p300 (p300 CH1 domain, residues 330–420) (Homo sapiens, UniProt Q09472) (assay: Fluorescence anisotropy direct titration of GFP-HIF-1α776–826 variants with GST-p300). Details: 50 nM GFP-HIF-1α776–826 variant, GST-p300 serial dilution, 25 mM Tris–HCl, 150 mM NaCl, 1 mM DTT, pH 7.4, 27 °C, 1:1 model, ± standard error of fitted value, technical triplicates.
Assay type: binding
Text: To experimentally compare the predictions, we carried out an in vitro biophysical study of several HIF-1α sequence variants. We assessed predicted hot residues and their interactions with p300 using the NMR structure to visualize the structural basis behind the predictions (See ESI, ^† Fig. S2). These analyses helped refine a first series of alanine variants to prepare. […] HIF-1α776–826 sequence variants were recombinantly prepared based on the predictions to test their binding to the recombinantly prepared p300 (Fig. 2). Given the length of the peptide ([…]), this was considered advantageous as it obviates the need to chemically synthesise, label and purify multiple variants. As the C-TAD domain is unstructured in isolation it was recombinantly expressed as a fusion protein with GFP. The green-fluorescent protein (GFP) tag was used for fluorescence anisotropy (FA) experiments to determine the binding affinity of HIF-1α776–826 C-TAD variants to p300. As the CH1 domain of p300 is a small domain of 11 kDa it was recombinantly expressed as a fusion protein with GST to increase its size and thus the signal to noise in the FA experiments. We established an assay where the interaction between GFP-tagged wt HIF-1α776–826 and GST-tagged p300 was monitored by FA, using the fluorescence of GFP. GST dimerises with single digit nM Kd[61] (and in our hands exists as a dimer in size exclusion chromatography analyses, see ESI, ^† Fig. S15 for protein characterization data), thus two molecules of GFP-HIF-1α could bind to the GST-p300 dimer (Fig. 2a). We make the assumption that each p300 binding site behaves independently and analyse the binding isotherm using a 1 : 1 model.
Fig. 2 Biophysical analyses on the effects of HIF-1α sequence variant p300 binding affinity. (a) schematic depicting the equilibrium for interaction of GFP-HIF-1α776–826 variants and GST-p300 as studied by fluorescence anisotropy; (b) representative fluorescence anisotropy titration data for sAV and mAV GFP-HIF-1α776–826 peptides interacting with GST-p300 (25 mM Tris–HCl, 150 mM NaCl, 1 mM DTT, pH 7.4), error bars represent standard deviation of technical triplicates; (c) raw ITC data (upper) and fitted thermogram (lower) for the interaction of GFP-HIF-1α776–826 peptides with p300 (37 °C in 25 mM Tris–HCl, 150 mM NaCl, 1 mM DTT, pH 7.4) using 10 μM p300 in the cell and 100 μM GFP-HIF-1α776–826 variant in the syringe; error bars represent estimated integration errors (d) thermodynamic signatures for each interaction. […]
7.4 buffer or dialysed into 25 mM Tris, 150 mM NaCl, 1 mM DTT pH 7.4 buffer.
GSTp300 protein was serially diluted in buffer (25 mM Tris-HCl, 150 mM NaCl, 1mM DTT, pH 7.4) and GFP-HIF-1α (50nM final concentration) was added, the plates were read after 0 min, 60 min, 4 h and 24 h, and incubated at room temperature in between. Each experiment was run in triplicate and the fluorescence anisotropy measured using an EnVision 2103 MultiLabel plate reader (Perkin Elmer) with excitation at 480 nm and emission at 535 nm (30 nm bandwidths). The recorded temperature for all measurements was 27°C ± 1°C. In parallel, a control experiment was performed in which no GFP-HIF was added and the volume made up with additional buffer, this blank was deducted from the raw data for each of the three repeats.
The intensity was calculated for each point using eqn (1) and used to calculated anisotropy […]
using eqn (2). From a plot of anisotropy against GST-p300 concentration the minimum and maximum anisotropies were obtained using a logistic sigmoidal fit in OriginPro 8.6. This allowed the conversion to fraction bound (eqn (3)). The data were then fitted using eqn (4) in OriginPro 8.6 to determine the dissociation constant, Kd. […]
5 µl injections and 180 s spacing between injections, for 40 injections. Titrations were performed in 40 mM Na-phosphate, pH 7.5 100 mM NaCl, 1 mM DTT buffer except for GFP- […]

Chain of GST-p300 (p300 CH1 domain, residues 330–420) (Q09472 330-420): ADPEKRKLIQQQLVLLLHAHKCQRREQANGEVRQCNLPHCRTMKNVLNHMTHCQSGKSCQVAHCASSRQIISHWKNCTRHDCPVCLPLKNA

Kd | Substance
590 ± 302 nM | D799A E801A N803A: GFP-HIF-1α776–826 C-TAD multiple alanine variant ({GFP}-SDLACRLLGQSMDESGLPQLTSYACAVAAPIQGSRNLLQGEELLRALDQVN; cysteine pairing not given here)
114 ± 53 nM | D799A: GFP-HIF-1α776–826 C-TAD single alanine variant D799A ({GFP}-SDLACRLLGQSMDESGLPQLTSYACEVNAPIQGSRNLLQGEELLRALDQVN; cysteine pairing not given here)
224 ± 18 nM | E801A L822A: GFP-HIF-1α776–826 C-TAD multiple alanine variant ({GFP}-SDLACRLLGQSMDESGLPQLTSYDCAVNAPIQGSRNLLQGEELLRAADQVN; cysteine pairing not given here)
128 ± 11 nM | E817A: GFP-HIF-1α776–826 C-TAD single alanine variant E817A ({GFP}-SDLACRLLGQSMDESGLPQLTSYDCEVNAPIQGSRNLLQGEALLRALDQVN; cysteine pairing not given here)
153 ± 19 nM | L795A D799A L818A L822A V825A: GFP-HIF-1α776–826 C-TAD multiple alanine variant ({GFP}-SDLACRLLGQSMDESGLPQATSYACEVNAPIQGSRNLLQGEEALRAADQAN; cysteine pairing not given here)
174 ± 45 nM | L795A D799A L822A: GFP-HIF-1α776–826 C-TAD multiple alanine variant ({GFP}-SDLACRLLGQSMDESGLPQATSYACEVNAPIQGSRNLLQGEELLRAADQVN; cysteine pairing not given here)
255 ± 44 nM | L795A D799A: GFP-HIF-1α776–826 C-TAD multiple alanine variant ({GFP}-SDLACRLLGQSMDESGLPQATSYACEVNAPIQGSRNLLQGEELLRALDQVN; cysteine pairing not given here)
118 ± 19 nM | L795A: GFP-HIF-1α776–826 C-TAD single alanine variant L795A ({GFP}-SDLACRLLGQSMDESGLPQATSYDCEVNAPIQGSRNLLQGEELLRALDQVN; cysteine pairing not given here)
247 ± 75 nM | L818A L822A D823A: GFP-HIF-1α776–826 C-TAD multiple alanine variant ({GFP}-SDLACRLLGQSMDESGLPQLTSYDCEVNAPIQGSRNLLQGEEALRAAAQVN; cysteine pairing not given here)
54 ± 33 nM | L818A L822A V825A: GFP-HIF-1α776–826 C-TAD multiple alanine variant ({GFP}-SDLACRLLGQSMDESGLPQLTSYDCEVNAPIQGSRNLLQGEEALRAADQAN; cysteine pairing not given here)
126 ± 33 nM | L818A L822A: GFP-HIF-1α776–826 C-TAD multiple alanine variant ({GFP}-SDLACRLLGQSMDESGLPQLTSYDCEVNAPIQGSRNLLQGEEALRAADQVN; cysteine pairing not given here)
237 ± 40 nM | L818A: GFP-HIF-1α776–826 C-TAD single alanine variant L818A ({GFP}-SDLACRLLGQSMDESGLPQLTSYDCEVNAPIQGSRNLLQGEEALRALDQVN; cysteine pairing not given here)
109 ± 66 nM | L822A: GFP-HIF-1α776–826 C-TAD single alanine variant L822A ({GFP}-SDLACRLLGQSMDESGLPQLTSYDCEVNAPIQGSRNLLQGEELLRAADQVN; cysteine pairing not given here)
120 ± 17 nM | N803A: GFP-HIF-1α776–826 C-TAD single alanine variant N803A ({GFP}-SDLACRLLGQSMDESGLPQLTSYDCEVAAPIQGSRNLLQGEELLRALDQVN; cysteine pairing not given here)
31 ± 8 nM | Q824A: GFP-HIF-1α776–826 C-TAD single alanine variant Q824A ({GFP}-SDLACRLLGQSMDESGLPQLTSYDCEVNAPIQGSRNLLQGEELLRALDAVN; cysteine pairing not given here)
37 ± 16 nM | S797A: GFP-HIF-1α776–826 C-TAD single alanine variant S797A ({GFP}-SDLACRLLGQSMDESGLPQLTAYDCEVNAPIQGSRNLLQGEELLRALDQVN; cysteine pairing not given here)
198 ± 37 nM | V825A: GFP-HIF-1α776–826 C-TAD single alanine variant V825A ({GFP}-SDLACRLLGQSMDESGLPQLTSYDCEVNAPIQGSRNLLQGEELLRALDQAN; cysteine pairing not given here)
